In patent WO2020228604A1 (dated 2020):
Each block holds one binder with its values, some of them ahead of it.

Assays:
[1] = target: T1, human TROP-2 protein with His tag (TROP-2-His) (human, UniProt P09758 27-274); test: indirect ELISA, TROP-2-His coated at 1 ug/ml
T1 construct: Bought reagent (Sino Biological 10428-H08H); also called TROP-2His protein; human TROP-2 His antigen; not shown: His tag
T1 sequence (looked up): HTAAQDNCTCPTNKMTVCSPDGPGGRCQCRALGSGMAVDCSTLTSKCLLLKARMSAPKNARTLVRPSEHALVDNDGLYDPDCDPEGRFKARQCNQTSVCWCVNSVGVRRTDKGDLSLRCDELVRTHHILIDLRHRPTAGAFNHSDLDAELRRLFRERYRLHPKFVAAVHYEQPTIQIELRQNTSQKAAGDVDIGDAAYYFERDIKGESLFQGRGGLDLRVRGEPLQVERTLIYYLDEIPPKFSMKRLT

[2] = target: T1, human TROP-2 protein with His tag …; test: competition ELISA; competitor: coated hRS7; test antibody diluted to 100 ug/ml and added with TROP-2-His

B2: humanized anti-TROP-2 antibody HU6 (antibody, V domains shown)
VH: EVQLLESGGGLVQPGGSLRLSCAASGFTVSNYWMNWVRQAPGKGLEWMGRIDPNDSETHYNQKFKDRVTISVDKSKNQFSLKLSSVTAADTAVYYCARSGFGSTYWFFDVWGQGTTVTVSS
VL: DVVMTQSPLSLPVTLGQPASISCKASQDVSTAVAWYQQKPGKAPKLFIYSASYRYTGVPSRFSGSGSGTDFTLTISSLQPEDFATYYCQQHYSTPLTFGQGTRLEIK
inhibition rate [2]: 6.7%

B3: humanized anti-TROP-2 antibody HU6DL (antibody, V domains shown)
VH: B2 VH
VL: B2 VL
inhibition rate [2]: 5.9%

B4: humanized anti-TROP-2 antibody HU1 (antibody, V domains shown)
VH: QVQLVQSGAEVKKPGSSVKVSCKASGYTFTNYWMNWVRQAPGKGLEWVGRIDPNDSETHYNQKFKDRFTITRDNSKNTLYLQMNSLRAEDTAVYYCARSGFGSTYWFFDVWGQGTTVTVSS
VL: AIRMTQSPFSLSASVGDRVTITCKASQDVSTAVAWYLQKPGQSPQLLIYSASYRYTRIPPRFSGSGYGTDFTLTINNIESEDAAYYFCQQHYSTPLTFGQGTRLEIK
inhibition rate [2]: 13.5%

Next, values leading:

EC50 [1]: 0.56 nM
B1: murine monoclonal antibody M1 (antibody, V domains shown)
VH: QVQLQQPGAELVRPGASVKLSCRASGYTFTNYWMNWVKQRPEQGLEWIGRIDPNDSETHYNQKFKDRAILTVDKASNTAYMQLSGLTSEDSAVHYCARSGFGSTYWFFDVWGAGTTVTVSS
VL: DIVMTQSHKFMSTSVGDRVSITCKASQDVSTAVAWYQQKPGQSPKLLIYSASYRYTGVPDRFAGSGYGTDFTFTISSVQTEDLTVYHCQQHYSTPLTFGPGTRLELK

inhibition rate [2]: 10.2%
B5: humanized anti-TROP-2 antibody HU10 (antibody, V domains shown)
VH: B4 VH
VL: B4 VL
